Assay results: PMC9820559, “Investigation of the Fuzzy Complex between RSV Nucleoprotein and Phosphoprotein to Optimize an Inhibition Assay by Fluorescence Polarization” (International Journal of Molecular Sciences, 2022)
Ends that are not written are not given here. * marks the point of attachment. dicyano BODIPY FL = CC1=CC(C)=[N+]2C1=Cc1ccc(CCC(=O)*)n1[B-]2(C#N)C#N; FITC = O=C1OC2(c3ccc(O)cc3Oc3cc(O)ccc32)c2ccc(NC(=S)*)cc21

Experiments:
Conditions in all cases: both partners purified
[1] = target: T1, RSV N-RNA complex (full-length N protein in ring-shaped complexes with bacterial RNA) (human respiratory syncytial virus, UniProt P03418 1-391); assay: fluorescence polarisation; competition: unlabeled P peptide varied against 200 nM F11 on 10 µM N-RNA; Tris pH 8 without salt; Hill equation; Ki from the IC50-to-Ki server
T1 construct: human RSV nucleoprotein N, full length; concentrations are of N protomer; also called N-RNA rings; source: in lysate for the co-purification; purified (glutathione-Sepharose, thrombin, Superdex 200) as N-RNA complex; copies: 10-11
T1 sequence (looked up): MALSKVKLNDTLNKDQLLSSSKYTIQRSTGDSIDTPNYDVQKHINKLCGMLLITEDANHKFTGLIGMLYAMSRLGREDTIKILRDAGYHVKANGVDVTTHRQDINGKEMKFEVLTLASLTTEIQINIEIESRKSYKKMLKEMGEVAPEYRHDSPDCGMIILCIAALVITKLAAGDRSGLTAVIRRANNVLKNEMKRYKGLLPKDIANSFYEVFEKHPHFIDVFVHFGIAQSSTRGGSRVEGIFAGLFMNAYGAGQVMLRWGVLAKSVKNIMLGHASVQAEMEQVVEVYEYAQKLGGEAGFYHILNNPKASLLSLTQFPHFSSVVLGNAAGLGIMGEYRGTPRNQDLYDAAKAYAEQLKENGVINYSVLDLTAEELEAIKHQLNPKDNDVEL

[2] = target: T1, RSV N-RNA complex (full-length N …); assay: fluorescence polarisation; 200 nM dicyano BODIPY FL-labelled BCNn peptide, N-RNA varied; 20 mM Tris pH 8.0 without salt, 0.01% Brij-35; 20 °C; single site model
[3] = target: T1, RSV N-RNA complex (full-length N …); assay: fluorescence polarisation; 200 nM dicyano BODIPY FL-labelled BCNn peptide, N-RNA varied; 20 mM Tris pH 8.0 with 100 mM NaCl, 0.01% Brij-35; 20 °C; single site model
[4] = target: T1, RSV N-RNA complex (full-length N …); assay: fluorescence polarisation; competition: unlabeled P5E varied against 200 nM F5E on 10 µM N-RNA; Tris pH 8 without salt; Hill equation; Ki from the IC50-to-Ki server
[5] = target: T1, RSV N-RNA complex (full-length N …); assay: fluorescence polarisation; 200 nM FTU-labelled Fn peptide, N-RNA varied (up to 40 µM N); 20 mM Tris pH 8.0 without salt, 0.01% Brij-35; 20 °C; 30 min incubation; single site model, or with a linear contribution where marked (*)
[6] = target: T1, RSV N-RNA complex (full-length N …); assay: fluorescence polarisation; competition: unlabeled P_(10EE) varied against 200 nM BCN_(10EE) on 1 µM N-RNA; Tris pH 8 buffer; Hill equation; Ki from the IC50-to-Ki server
[7] = target: T1, RSV N-RNA complex (full-length N …); assay: fluorescence polarisation; competition: unlabeled P7E varied against 200 nM F7E on 10 µM N-RNA; Tris pH 8 without salt; Hill equation; Ki from the IC50-to-Ki server

B1: P_(11EE) (unlabeled RSV P 11-mer, Ser232Glu/Ser237Glu) (peptide)
peptide: DEDNDLELEDF
notes: unlabeled peptide from which F_(11EE) was made; C-terminal 11 residues of RSV phosphoprotein P; source: synthetic peptide (Fmoc/tBu solid phase, RP-HPLC purified)
[1]
  IC50: 22 ± 4 µM
  Ki: 6 µM

B2: BCN_(11EE) (dicyano BODIPY FL-labelled RSV P 11-mer, Ser232Glu/Ser237Glu) (peptide)
peptide: {dicyano BODIPY FL}-DEDNDLELEDF
notes: C-terminal 11 residues of RSV phosphoprotein P with phosphomimetic glutamates at 232 and 237; source: synthetic peptide (Fmoc/tBu solid phase, dicyano BODIPY FL coupled on resin, RP-HPLC purified)
[2]
  Kd: 0.28 ± 0.07 µM
[3]
  Kd: 0.26 ± 0.04 µM

B3: BCN9E (dicyano BODIPY FL-labelled RSV P 9-mer, Ser237Glu) (peptide)
peptide: {dicyano BODIPY FL}-DNDLELEDF
notes: C-terminal 9 residues of RSV phosphoprotein P with a phosphomimetic glutamate at 237; also called B9E; source: synthetic peptide (Fmoc/tBu solid phase, dicyano BODIPY FL coupled on resin, RP-HPLC purified)
[2]
  Kd: 0.96 ± 0.13 µM

B4: BCN_(10EE) (dicyano BODIPY FL-labelled RSV P 10-mer, Ser232Glu/Ser237Glu) (peptide)
peptide: {dicyano BODIPY FL}-EDNDLELEDF
notes: C-terminal 10 residues of RSV phosphoprotein P with phosphomimetic glutamates at 232 and 237; also called B_(10EE); source: synthetic peptide (Fmoc/tBu solid phase, dicyano BODIPY FL coupled on resin, RP-HPLC purified)
[2]
  Kd: 0.16 ± 0.03 µM
[3]
  Kd: 1.24 ± 0.31 µM

B5: P5E (unlabeled RSV P 5-mer, Ser237Glu) (peptide)
peptide: ELEDF
notes: unlabeled peptide from which F5E was made; C-terminal 5 residues of RSV phosphoprotein P; source: synthetic peptide (Fmoc/tBu solid phase, RP-HPLC purified)
[4]
  IC50: 433 ± 21 µM
  Ki: 158 µM

B6: F5E (FTU-labelled RSV P 5-mer, Ser237Glu) (peptide)
peptide: {FITC}-ELEDF
notes: C-terminal 5 residues of RSV phosphoprotein P with a phosphomimetic glutamate at 237; source: synthetic peptide (Fmoc/tBu solid phase), FITC coupled in solution, HPLC purified
[5]
  Kd: 5.9 ± 0.5 µM

B7: P_(10EE) (unlabeled RSV P 10-mer, Ser232Glu/Ser237Glu) (peptide)
peptide: EDNDLELEDF
notes: unlabeled equivalent of BCN_(10EE), which was made from P_(10EE) on resin; C-terminal 10 residues of RSV phosphoprotein P; source: synthetic peptide
[6]
  IC50: 21 ± 4 µM
  Ki: 2.9 µM

B8: P7E (unlabeled RSV P 7-mer, Ser237Glu) (peptide)
peptide: DLELEDF
notes: unlabeled peptide from which F7E was made; C-terminal 7 residues of RSV phosphoprotein P; source: synthetic peptide (Fmoc/tBu solid phase, RP-HPLC purified)
[7]
  IC50: 376 ± 26 µM
  Ki: 74 µM
[1]
  IC50: 180 ± 11 µM
  Ki: 75 µM
